T1: NHERF3_3, Q5T2W1
T1 sequence (Q5T2W1 238-333, limits assumed, looked up): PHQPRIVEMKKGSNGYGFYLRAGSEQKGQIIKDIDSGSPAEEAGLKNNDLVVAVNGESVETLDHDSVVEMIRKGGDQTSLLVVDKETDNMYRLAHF

T2: SHANK1, Q9Y566
T2 sequence (Q9Y566 658-767, limits assumed, looked up): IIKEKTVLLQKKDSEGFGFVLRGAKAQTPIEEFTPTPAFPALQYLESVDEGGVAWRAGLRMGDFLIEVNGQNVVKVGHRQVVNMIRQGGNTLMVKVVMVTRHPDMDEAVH

T3: DFNB31_3, Q9P202
T3 sequence (Q9P202 811-907, limits assumed, looked up): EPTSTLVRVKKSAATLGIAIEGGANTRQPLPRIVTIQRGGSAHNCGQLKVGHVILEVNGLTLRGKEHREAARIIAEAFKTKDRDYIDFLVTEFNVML

T4: TJP3_3, O95049
T4 sequence (O95049 375-456, limits assumed, looked up): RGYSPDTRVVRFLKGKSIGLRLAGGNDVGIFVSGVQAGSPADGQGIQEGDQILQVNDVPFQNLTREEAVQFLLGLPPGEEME

T5: TIAM2, Q8IVF5
T5 sequence (Q8IVF5 885-986, limits assumed, looked up): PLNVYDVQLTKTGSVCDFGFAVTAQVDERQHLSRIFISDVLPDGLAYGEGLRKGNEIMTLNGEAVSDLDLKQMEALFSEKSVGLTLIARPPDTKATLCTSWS

T6: NHERF3_1, Q5T2W1
T6 sequence (Q5T2W1 4-100, limits assumed, looked up): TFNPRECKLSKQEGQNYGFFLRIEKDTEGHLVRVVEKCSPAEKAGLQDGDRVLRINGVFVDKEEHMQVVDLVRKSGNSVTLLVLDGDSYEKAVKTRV

T7: LNX2_2, Q8N448
T7 sequence (Q8N448 334-432, limits assumed, looked up): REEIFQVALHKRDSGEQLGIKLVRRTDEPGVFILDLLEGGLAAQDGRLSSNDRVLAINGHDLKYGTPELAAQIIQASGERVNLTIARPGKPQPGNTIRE

T8: MPP2, Q14168
T8 sequence (Q14168 180-250, limits assumed, looked up): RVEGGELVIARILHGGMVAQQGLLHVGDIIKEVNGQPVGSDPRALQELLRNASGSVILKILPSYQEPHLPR

T9: PCLO, Q9Y6V0
T9 sequence (Q9Y6V0 4491-4600, limits assumed, looked up): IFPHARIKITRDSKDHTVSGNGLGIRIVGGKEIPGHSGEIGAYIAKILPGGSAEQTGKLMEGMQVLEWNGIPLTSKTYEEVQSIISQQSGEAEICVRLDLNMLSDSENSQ

T10: GRIP1_5, Q9Y3R0
T10 sequence (Q9Y3R0 568-668, limits assumed, looked up): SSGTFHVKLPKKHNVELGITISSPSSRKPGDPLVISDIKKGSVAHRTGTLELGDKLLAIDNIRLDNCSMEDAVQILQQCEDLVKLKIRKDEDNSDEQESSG


Legend:
Assay in all cases: holdup assay
Set-up in all cases: key: below the threshold = too weak to quantify, mostly under pKd 3.1 to 4
Settings in all cases: plain residues with an end cap or a label only (N-terminal biotin on a linker: ado-ado)
NOS1, P29475 = molecular target: NOS1, P29475
Chain of NOS1, P29475 (P29475 9-101): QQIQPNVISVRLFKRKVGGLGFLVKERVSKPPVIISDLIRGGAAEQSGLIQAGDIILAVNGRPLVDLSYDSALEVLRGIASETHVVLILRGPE

PICK1, Q9NRD5 = molecular target: PICK1, Q9NRD5
Chain of PICK1, Q9NRD5 (Q9NRD5 17-115): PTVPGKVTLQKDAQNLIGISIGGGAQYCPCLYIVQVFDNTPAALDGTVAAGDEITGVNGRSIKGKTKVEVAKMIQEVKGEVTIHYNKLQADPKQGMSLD

NHERF3_3, Q5T2W1 = molecular target: T1, NHERF3_3, Q5T2W1
SHANK1, Q9Y566 = molecular target: T2, SHANK1, Q9Y566
DLG4_2, P78352 = molecular target: DLG4_2, P78352
Chain of DLG4_2, P78352 (P78352 155-259): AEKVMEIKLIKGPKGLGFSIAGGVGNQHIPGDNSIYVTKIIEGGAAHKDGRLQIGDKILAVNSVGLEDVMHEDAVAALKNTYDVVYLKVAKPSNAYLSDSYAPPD

FRMPD2_3, Q68DX3 = molecular target: FRMPD2_3, Q68DX3
Chain of FRMPD2_3, Q68DX3 (Q68DX3 1073-1166): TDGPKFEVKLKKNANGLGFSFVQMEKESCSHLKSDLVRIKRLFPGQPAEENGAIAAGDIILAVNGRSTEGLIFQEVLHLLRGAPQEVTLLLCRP

DFNB31_3, Q9P202 = molecular target: T3, DFNB31_3, Q9P202
TJP3_3, O95049 = molecular target: T4, TJP3_3, O95049
DLG2_2, Q15700 = molecular target: DLG2_2, Q15700
Chain of DLG2_2, Q15700 (Q15700 189-283): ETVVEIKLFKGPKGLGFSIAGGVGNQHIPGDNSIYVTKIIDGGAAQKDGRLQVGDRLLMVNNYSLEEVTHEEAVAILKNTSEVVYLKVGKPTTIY

MAGI2_6, Q86UL8 = molecular target: MAGI2_6, Q86UL8
Chain of MAGI2_6, Q86UL8 (Q86UL8 1141-1229): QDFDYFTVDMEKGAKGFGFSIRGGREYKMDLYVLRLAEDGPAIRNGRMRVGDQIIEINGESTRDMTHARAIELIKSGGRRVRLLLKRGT

MAGI2_2, Q86UL8 = molecular target: MAGI2_2, Q86UL8
Chain of MAGI2_2, Q86UL8 (Q86UL8 410-522): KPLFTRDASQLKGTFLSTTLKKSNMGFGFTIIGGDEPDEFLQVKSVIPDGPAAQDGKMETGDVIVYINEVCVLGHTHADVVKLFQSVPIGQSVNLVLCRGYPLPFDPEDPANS

TIAM2, Q8IVF5 = molecular target: T5, TIAM2, Q8IVF5
Inadl_8, Q8NI35 = molecular target: Inadl_8, Q8NI35
Chain of Inadl_8, Q8NI35 (Q8NI35 1425-1530): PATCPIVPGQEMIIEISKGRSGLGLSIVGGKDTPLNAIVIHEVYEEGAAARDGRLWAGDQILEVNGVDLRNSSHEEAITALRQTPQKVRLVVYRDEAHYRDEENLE

DLG5_1, Q8TDM6 = molecular target: DLG5_1, Q8TDM6
Chain of DLG5_1, Q8TDM6 (Q8TDM6 617-713): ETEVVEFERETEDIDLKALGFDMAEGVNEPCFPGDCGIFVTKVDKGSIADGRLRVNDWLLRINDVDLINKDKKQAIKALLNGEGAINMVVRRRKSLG

PTPN3, P26045 = molecular target: PTPN3, P26045
Chain of PTPN3, P26045 (P26045 505-587): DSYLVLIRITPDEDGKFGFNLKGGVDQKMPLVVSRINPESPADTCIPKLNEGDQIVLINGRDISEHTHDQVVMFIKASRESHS

Inadl_6, Q8NI35 = molecular target: Inadl_6, Q8NI35
Chain of Inadl_6, Q8NI35 (Q8NI35 1058-1167): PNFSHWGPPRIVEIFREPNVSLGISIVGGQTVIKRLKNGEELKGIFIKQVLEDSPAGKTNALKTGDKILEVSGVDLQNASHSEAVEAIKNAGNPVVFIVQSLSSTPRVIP

NHERF3_1, Q5T2W1 = molecular target: T6, NHERF3_1, Q5T2W1
LNX2_2, Q8N448 = molecular target: T7, LNX2_2, Q8N448
GORASP1, Q9BQQ3 = molecular target: GORASP1, Q9BQQ3
Chain of GORASP1, Q9BQQ3 (Q9BQQ3 1-208): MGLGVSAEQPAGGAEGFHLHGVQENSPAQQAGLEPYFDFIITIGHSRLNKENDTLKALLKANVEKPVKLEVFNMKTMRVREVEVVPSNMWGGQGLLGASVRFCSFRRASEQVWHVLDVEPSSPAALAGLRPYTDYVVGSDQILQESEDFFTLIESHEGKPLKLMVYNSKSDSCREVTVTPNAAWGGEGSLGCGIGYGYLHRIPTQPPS

MPP2, Q14168 = molecular target: T8, MPP2, Q14168
PCLO, Q9Y6V0 = molecular target: T9, PCLO, Q9Y6V0
GRID2IP_1, A4D2P6 = molecular target: GRID2IP_1, A4D2P6
Chain of GRID2IP_1, A4D2P6 (A4D2P6 1-87): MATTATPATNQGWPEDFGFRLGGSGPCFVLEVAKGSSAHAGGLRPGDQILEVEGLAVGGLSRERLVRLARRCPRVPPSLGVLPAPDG

GRIP1_5, Q9Y3R0 = molecular target: T10, GRIP1_5, Q9Y3R0
TJP1_3, Q07157 = molecular target: TJP1_3, Q07157
Chain of TJP1_3, Q07157 (Q07157 416-512): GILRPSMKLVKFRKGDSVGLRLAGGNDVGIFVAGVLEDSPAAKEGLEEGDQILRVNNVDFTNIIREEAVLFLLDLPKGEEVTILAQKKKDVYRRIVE

NHERF4_1, Q86UT5-2 = molecular target: NHERF4_1, Q86UT5-2
Chain of NHERF4_1, Q86UT5-2 (Q86UT5 other isoform, or with tags, fused parts or gaps): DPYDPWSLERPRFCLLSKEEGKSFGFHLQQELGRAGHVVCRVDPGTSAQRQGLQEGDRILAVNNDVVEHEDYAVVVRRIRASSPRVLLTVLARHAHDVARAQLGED

IL16_1, Q14005 = molecular target: IL16_1, Q14005
Chain of IL16_1, Q14005 (Q14005 210-306): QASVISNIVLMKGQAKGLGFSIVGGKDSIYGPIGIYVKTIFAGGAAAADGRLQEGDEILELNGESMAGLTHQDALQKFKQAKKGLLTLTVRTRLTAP

DLG4_1, P78352 = molecular target: DLG4_1, P78352
Chain of DLG4_1, P78352 (P78352 62-152): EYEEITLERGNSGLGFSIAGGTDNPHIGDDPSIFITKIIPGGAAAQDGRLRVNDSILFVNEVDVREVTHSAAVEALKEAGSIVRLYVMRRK

pKd (NOS1, P29475) | pKd (PICK1, Q9NRD5) | pKd (NHERF3_3, Q5T2W1) | pKd (SHANK1, Q9Y566) | pKd (DLG4_2, P78352) | pKd (FRMPD2_3, Q68DX3) | pKd (DFNB31_3, Q9P202) | pKd (TJP3_3, O95049) | pKd (DLG2_2, Q15700) | pKd (MAGI2_6, Q86UL8) | pKd (MAGI2_2, Q86UL8) | pKd (TIAM2, Q8IVF5) | pKd (Inadl_8, Q8NI35) | pKd (DLG5_1, Q8TDM6) | pKd (PTPN3, P26045) | pKd (Inadl_6, Q8NI35) | pKd (NHERF3_1, Q5T2W1) | pKd (LNX2_2, Q8N448) | pKd (GORASP1, Q9BQQ3) | pKd (MPP2, Q14168) | Binder | further results
3.69 | below the threshold | below the threshold | below the threshold | 5.85 | below the threshold | below the threshold | below the threshold | 5.75 | 3.72 | 5.52 | below the threshold | 4.42 | 3.59 | 4.31 | 3.53 | below the threshold | 5.24 | 3.76 | below the threshold | ATKDKKITTV [EXOC4, Q96A65] | pKd (PCLO, Q9Y6V0): below the threshold; pKd (GRID2IP_1, A4D2P6): below the threshold; pKd (GRIP1_5, Q9Y3R0): below the threshold; pKd (TJP1_3, Q07157): below the threshold; pKd (NHERF4_1, Q86UT5-2): 3.64; pKd (IL16_1, Q14005): below the threshold; pKd (DLG4_1, P78352): 5.25
below the threshold | below the threshold | below the threshold | 3.64 | 3.59 | below the threshold | below the threshold | below the threshold | below the threshold | below the threshold | below the threshold | 4.04 | below the threshold | below the threshold | 4.08 | below the threshold | below the threshold | below the threshold | below the threshold | below the threshold | GSQSQVETEA [FKBP4, Q02790] | pKd (PCLO, Q9Y6V0): below the threshold; pKd (GRID2IP_1, A4D2P6): below the threshold; pKd (GRIP1_5, Q9Y3R0): below the threshold; pKd (TJP1_3, Q07157): below the threshold; pKd (NHERF4_1, Q86UT5-2): 3.97; pKd (IL16_1, Q14005): below the threshold; pKd (DLG4_1, P78352): below the threshold
4.19 | below the threshold | below the threshold | 4.55 | 4.93 | below the threshold | below the threshold | below the threshold | 4.66 | 3.83 | 5.03 | below the threshold | 3.87 | below the threshold | 4.6 | below the threshold | 5.52 | 4.16 | below the threshold | below the threshold | FHSIKQSTAV [CRHR1, P34998] | pKd (PCLO, Q9Y6V0): below the threshold; pKd (GRID2IP_1, A4D2P6): below the threshold; pKd (GRIP1_5, Q9Y3R0): below the threshold; pKd (TJP1_3, Q07157): below the threshold; pKd (NHERF4_1, Q86UT5-2): 3.81; pKd (IL16_1, Q14005): below the threshold; pKd (DLG4_1, P78352): 4.56
